From the RNAGym collection of RNA variant scans (doi:10.1073/pnas.2313332121) come the findings set out here.

B1: TPR 5TU (parent)
chain: GGAUCUUCUCGAUCUAACAAAAAAGACAAAUCUGCCACAAAGCUUGAGAGCAUCUUCGGAUGCAGAGGCGGCAGCCUUCGGUGGCGCGAUAGCGCCAACGUUCUCAACUAUGACACGCAAAACGCGUGCUCCGUUGAAUGGAGUUUAUCAUG

Variants at the floor of the assay were thinned out.

In this data set the parent is B1. The data set can be described thus: polymerase ribozyme fitness, log enrichment relative to wild type (log ratio); higher = more active; in vitro selection for triplet polymerase activity. The gist of the method: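 Fitness measures genotype enrichment against wild-type enrichment on a logarithmic scale, with inverse-variance-weighted averaging of replicates. The logarithm is base 2, and genotypes were kept only with ≥10 input reads and ≥1 read per output in Illumina sequencing. The sequenced libraries came from one triplicate in vitro selection round, including frozen incubation at −7 °C, of PCR-built, transcribed mutant libraries of each subunit of a heterodimeric triplet polymerase ribozyme.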
As for C93U C99G, the “polymerase ribozyme fitness (log ratio)” value was -1.97.
For C96A U104A G124C, the “polymerase ribozyme fitness (log ratio)” value is -1.19.
With G94C A97G C116A, the “polymerase ribozyme fitness (log ratio)” value was -0.587.
Take C96U A115G G136U A142G: the “polymerase ribozyme fitness (log ratio)” value is -3.69.
On to C93U C114U G141A, for which the “polymerase ribozyme fitness (log ratio)” value was at most -4.2.
Regarding C96A U148A, the “polymerase ribozyme fitness (log ratio)” value is -3.15.
In the case of C95U C96G U135G U144G A147C, the “polymerase ribozyme fitness (log ratio)” value was -4.2.
Take C96G C105G G143A: the “polymerase ribozyme fitness (log ratio)” value is -3.02.
The same measure for C93U C123G A138C: at most -4.2; for C96G G143C: -2.86.
As to C93U C95U C131U, the “polymerase ribozyme fitness (log ratio)” value was -0.998.
The same measure for G94A C96U C99G U144G: at most -4.2; for A98G U104G C118U: -0.702.
As to G94U A150U, the “polymerase ribozyme fitness (log ratio)” value is -0.849.
The same measure for G94U A150G: -2.5.
Regarding G94C U101A G152A, the “polymerase ribozyme fitness (log ratio)” value is -2.72.
With C93U C116U, the “polymerase ribozyme fitness (log ratio)” value is -0.9.
Turning to C95U C99G U104G A110G C116A A142U, the “polymerase ribozyme fitness (log ratio)” value is at most -4.2.
Consider C96U A110U, for which the “polymerase ribozyme fitness (log ratio)” value is -3.6.
Regarding C93U U102G G117U U135A, the “polymerase ribozyme fitness (log ratio)” value was at most -4.2.
The same measure for C96U C123U: -0.655.
Regarding C96U C123A, the “polymerase ribozyme fitness (log ratio)” value is -0.106.
The figure for C95U A147U is 0.673; for G94A A106G C131G it is at most -4.2.
As to C96U U151G, the “polymerase ribozyme fitness (log ratio)” value was -4.05.
For G94C C131U, the “polymerase ribozyme fitness (log ratio)” value is -1.79.
Take G94A C105A: the “polymerase ribozyme fitness (log ratio)” value was -1.65.
Regarding G94A A119U, the “polymerase ribozyme fitness (log ratio)” value is -2.21.
With C96U G141A, the “polymerase ribozyme fitness (log ratio)” value came out at 0.0586.
For the variant C96U G141C, the “polymerase ribozyme fitness (log ratio)” value is -0.372.
For the variant C96A C105U A122U, the “polymerase ribozyme fitness (log ratio)” value worked out at 0.463.
Take A97U C99G: the “polymerase ribozyme fitness (log ratio)” value is -1.6.
Take A98G C132G G136C: the “polymerase ribozyme fitness (log ratio)” value is -4.12.
For C96U A142C, the “polymerase ribozyme fitness (log ratio)” value was -1.15.
Take C96U A142G: the “polymerase ribozyme fitness (log ratio)” value is -1.18.
For C95U C105G, the “polymerase ribozyme fitness (log ratio)” value is -0.337.
With A97U G117U, the “polymerase ribozyme fitness (log ratio)” value is -1.25.
In the case of G94A C123G U146G, the “polymerase ribozyme fitness (log ratio)” value was -1.05.
Regarding A97U G140U, the “polymerase ribozyme fitness (log ratio)” value was -3.87.
For the variant C96U C116U G140C U144G, the “polymerase ribozyme fitness (log ratio)” value was -4.04.
For C93U C103A C105U A120G U134C, the “polymerase ribozyme fitness (log ratio)” value is -3.94.
Consider G94C A107G, for which the “polymerase ribozyme fitness (log ratio)” value was -3.89.
On to C93U G94U A107C, for which the “polymerase ribozyme fitness (log ratio)” value was at most -4.2.
Turning to C95A C96A C116U, the “polymerase ribozyme fitness (log ratio)” value was -0.649.
Regarding C93U G94U, the “polymerase ribozyme fitness (log ratio)” value is -1.43.
For A97G C99G, the “polymerase ribozyme fitness (log ratio)” value is -0.579.
With C93U A115U A120G, the “polymerase ribozyme fitness (log ratio)” value was -2.4.
The same measure for C93U A137C: -4.07; for G94A A97U: -1; for A97G C116U G133U: at most -4.2.
In the case of C95U C123U, the “polymerase ribozyme fitness (log ratio)” value is 0.509.
For the variant C96A G124U, the “polymerase ribozyme fitness (log ratio)” value was -0.674.
The same measure for C96A G124A: -0.328.
In the case of G94C A97U G136C, the “polymerase ribozyme fitness (log ratio)” value was -3.35.
For the variant G94A A137C, the “polymerase ribozyme fitness (log ratio)” value was -3.2.
The figure for C96G A107G is at most -4.2; for C93U A119G G143U U145G it is -3.92; for A97G it is -0.12.
Take A97U: the “polymerase ribozyme fitness (log ratio)” value was -0.75.
For the variant A97C, the “polymerase ribozyme fitness (log ratio)” value came to 0.773.
The same measure for C93U C95G: -2.26.
Take G94A U151A: the “polymerase ribozyme fitness (log ratio)” value was at most -4.2.
On to C96A, for which the “polymerase ribozyme fitness (log ratio)” value was -0.52.
The figure for C96U is -0.258; for C96G it is -0.496; for C96A U139C it is -3.61.
As for C96G C105G, the “polymerase ribozyme fitness (log ratio)” value is -1.92.
Regarding C95U U145A, the “polymerase ribozyme fitness (log ratio)” value is 0.0594.
Regarding C96G A98G G124A, the “polymerase ribozyme fitness (log ratio)” value was -1.82.
As for C93U G140U, the “polymerase ribozyme fitness (log ratio)” value was -3.59.
Turning to A98G G124C, the “polymerase ribozyme fitness (log ratio)” value is -0.819.
The same measure for C93U C103U A107C C125A: at most -4.2; for C93U G141A U146G: -3.48.
As to C93U U101A, the “polymerase ribozyme fitness (log ratio)” value is -2.19.
The same measure for C95U C125U A142C: -3.48.
Take C96A G126A U139G U151C: the “polymerase ribozyme fitness (log ratio)” value was at most -4.2.
Turning to C93U U144G, the “polymerase ribozyme fitness (log ratio)” value is -0.253.
Turning to C93U U144C, the “polymerase ribozyme fitness (log ratio)” value is -1.07.
With C96G G152U, the “polymerase ribozyme fitness (log ratio)” value was -2.77.
As for G94A G141A A150U, the “polymerase ribozyme fitness (log ratio)” value was at most -4.2.
On to C96U G143C, for which the “polymerase ribozyme fitness (log ratio)” value was -3.12.
C96U G143A: the “polymerase ribozyme fitness (log ratio)” value is -0.236.
The same measure for G94A C108A A137C: at most -4.2; for A98U A137C: -4.19.
In the case of C95U A107G, the “polymerase ribozyme fitness (log ratio)” value was -4.16.
The same measure for A97G A107G: -4.13; for C95A U101C: 0.62.
As to A98U U101G C129U U139C, the “polymerase ribozyme fitness (log ratio)” value is at most -4.2.
As for A97U U151G, the “polymerase ribozyme fitness (log ratio)” value was at most -4.2.
Turning to C96A U130C, the “polymerase ribozyme fitness (log ratio)” value worked out at 0.457.
As to G94A C96G, the “polymerase ribozyme fitness (log ratio)” value is -2.1.
For C95A A98G, the “polymerase ribozyme fitness (log ratio)” value was determined as 0.372.
For the variant C95U A98C, the “polymerase ribozyme fitness (log ratio)” value was -1.
Regarding C95U A98G, the “polymerase ribozyme fitness (log ratio)” value is -1.9.
Take C96U A113G G136C: the “polymerase ribozyme fitness (log ratio)” value was -3.93.
In the case of C96A C105G, the “polymerase ribozyme fitness (log ratio)” value is -1.4.
The figure for C96A C105U is 0.343.
Take C93U G117A A142C: the “polymerase ribozyme fitness (log ratio)” value was -4.07.
With C95A C99A C123G, the “polymerase ribozyme fitness (log ratio)” value is -1.33.
As for C95U C131G, the “polymerase ribozyme fitness (log ratio)” value is -3.24.
On to C93U C131A, for which the “polymerase ribozyme fitness (log ratio)” value was -2.97.
The figure for C96A U127A is -3.79; for C93U C149U it is -1.57.
The same measure for C93U C149G: -4.08; for C96G A97G G143U: -3.14.
Regarding C96U C149U, the “polymerase ribozyme fitness (log ratio)” value was -0.874.
The same measure for G94C G126A C132A: -2.93; for G94C G126A: 0.311; for C95A C96A: -2.33.
With C96G A142U U146A, the “polymerase ribozyme fitness (log ratio)” value was -1.97.
In the case of C93U C99G G136A, the “polymerase ribozyme fitness (log ratio)” value is -0.753.
The same measure for C96G U134G: -1.64.
For C96A C116G G136C, the “polymerase ribozyme fitness (log ratio)” value was -3.22.
As to C96U A113U G124U, the “polymerase ribozyme fitness (log ratio)” value was -2.41.
Turning to C96U U104G C129G, the “polymerase ribozyme fitness (log ratio)” value was -2.81.
For C95U G141A, the “polymerase ribozyme fitness (log ratio)” value came to 0.432.
The same measure for G94U C114G C116U: at most -4.2.
For G94A G152C, the “polymerase ribozyme fitness (log ratio)” value is -3.08.
The figure for A98U G141U is 1.39; for A98U A115U A121G U127G it is -3.32; for A97G C123G C131G it is -2.72.
The figure for C96U A138U is at most -4.2.
As for C93U G136A, the “polymerase ribozyme fitness (log ratio)” value is -1.1.
C93U G136C: the “polymerase ribozyme fitness (log ratio)” value was -4.02.
For the variant C96G U102G, the “polymerase ribozyme fitness (log ratio)” value was -3.26.
The figure for C95G C96G is -2.17; for C95G C96U it is -2.05; for G94C G117U it is 0.0157.
The figure for C93U U135A is -2.01.
Regarding C93U U135C, the “polymerase ribozyme fitness (log ratio)” value was -2.76.
Turning to G94A U139C, the “polymerase ribozyme fitness (log ratio)” value was -3.82.
Turning to A97U U139A U144A, the “polymerase ribozyme fitness (log ratio)” value was -4.08.
The same measure for C96G A98U C103G A113C G143A: at most -4.2; for C96U A119C G141A: 0.872; for C96G G100U: -3.95.
As for C93U G117C C125A, the “polymerase ribozyme fitness (log ratio)” value is -0.271.
Take C96G C103U: the “polymerase ribozyme fitness (log ratio)” value was -0.445.
The same measure for G94U C96U: -0.719.
C96A G117U A138U: the “polymerase ribozyme fitness (log ratio)” value is at most -4.2.
C96G A150U: the “polymerase ribozyme fitness (log ratio)” value came out at 0.451.
Take G94A G117U: the “polymerase ribozyme fitness (log ratio)” value is -0.469.
On to C96G U102C A121G G141A A150G, for which the “polymerase ribozyme fitness (log ratio)” value was -4.15.
As to C96A C125A, the “polymerase ribozyme fitness (log ratio)” value is -0.718.
As to C95A C96A U104C A142C, the “polymerase ribozyme fitness (log ratio)” value was -4.07.
The figure for C95U C96U G124U G136C is -3.61.
Consider C95U C123A C125U, for which the “polymerase ribozyme fitness (log ratio)” value was -0.165.
As for C96A C125U U130C, the “polymerase ribozyme fitness (log ratio)” value is -0.299.
On to G94A G124A A150U, for which the “polymerase ribozyme fitness (log ratio)” value came to 0.987.
C93U U148A: the “polymerase ribozyme fitness (log ratio)” value was -3.85.
For the variant C93U C96A, the “polymerase ribozyme fitness (log ratio)” value was -1.65.
Turning to A98U A142U, the “polymerase ribozyme fitness (log ratio)” value was -2.98.
Consider C96U G143C U146C, for which the “polymerase ribozyme fitness (log ratio)” value was -1.75.
The figure for C96U A137U is -3.84.
As to C96A G126C, the “polymerase ribozyme fitness (log ratio)” value is -0.953.
Regarding C96G C108A C123G, the “polymerase ribozyme fitness (log ratio)” value was -3.69.
As for C96U A97U U134G A138C, the “polymerase ribozyme fitness (log ratio)” value is at most -4.2.
C93U A142U: the “polymerase ribozyme fitness (log ratio)” value was -1.68.
The figure for C93U A142C is -0.842.
As for G94U A97G U127A A150U, the “polymerase ribozyme fitness (log ratio)” value is at most -4.2.
Regarding C96U G126A, the “polymerase ribozyme fitness (log ratio)” value worked out at 0.845.
On to C95U A150G, for which the “polymerase ribozyme fitness (log ratio)” value was -2.25.
The same measure for G94C C105A: -1.22.
Regarding G94U G128U U139A G141A, the “polymerase ribozyme fitness (log ratio)” value is at most -4.2.
The same measure for A98G A120G C125A U144A: -1.16.
For the variant C96A C132G, the “polymerase ribozyme fitness (log ratio)” value was -3.72.
For the variant G94U G141C, the “polymerase ribozyme fitness (log ratio)” value was -1.45.
The same measure for C95U C96A C99U C108U: -4.11.
